Experimental data taken from patent US20150098990A1.

Experiments:
[1] = target: mouse dorsal root ganglion (DRG) neurons (surface proteins that the peptides bind are not identified) (mouse (C57BL/6)); experiment: phage binding to cultured DRG neurons, anti-fd immunostaining, confocal microscopy
[2] = target: mouse dorsal root ganglion (DRG) neurons (surface proteins that the peptides bind are not identified) (mouse (C57BL/6)); experiment: double staining of isolated DRG neurons incubated with DRG-p1 and GST-DRG3, antibodies against phage and GST
[3] = target: mouse dorsal root ganglion (DRG) neurons (surface proteins that the peptides bind are not identified) (mouse (C57BL/6)); experiment: synthetic peptide DRG3 at 10^-4 M; competitor phage DRG-p3 on cultured DRG neurons, anti-fd immunostaining
[4] = target: mouse dorsal root ganglion (DRG) neurons (surface proteins that the peptides bind are not identified) (mouse (C57BL/6)); experiment: synthetic peptide DRG3 at 10^-6 M; competitor phage DRG-p3 on cultured DRG neurons, anti-fd immunostaining
[5] = target: mouse dorsal root ganglion (DRG) neurons (surface proteins that the peptides bind are not identified) (mouse (C57BL/6)); experiment: synthetic peptide DRG1 at 10^-4 M; competitor phage DRG-p1 on cultured DRG neurons, anti-fd immunostaining
[6] = target: mouse dorsal root ganglion (DRG) neurons (surface proteins that the peptides bind are not identified) (mouse (C57BL/6)); experiment: synthetic peptide DRG1 at 10^-6 M; competitor phage DRG-p1 on cultured DRG neurons, anti-fd immunostaining
[7] = target: mouse dorsal root ganglion (DRG) neurons (surface proteins that the peptides bind are not identified) (mouse (C57BL/6)); experiment: synthetic peptide DRG2 at 10^-4 M; competitor phage DRG-p2 on cultured DRG neurons, anti-fd immunostaining
[8] = target: mouse dorsal root ganglion (DRG) neurons (surface proteins that the peptides bind are not identified) (mouse (C57BL/6)); experiment: synthetic peptide DRG2 at 10^-6 M; competitor phage DRG-p2 on cultured DRG neurons, anti-fd immunostaining

phage clone DRG-p2 (M13 phage displaying the DRG2 peptide DGPWRKM on pIII)
percent of DRG neurons bound [1]: 43%

phage clone DRG-p3 (M13 phage displaying the DRG3 peptide FGQKASS on pIII)
percent of DRG neurons bound [1]: 29%

phage clone DRG-p1 (M13 phage displaying the DRG1 peptide SPGARAF on pIII)
percent of DRG neurons bound [1]: 38% | percent of GST-DRG3-positive neurons with double positive staining [2]: 71%

B1: synthetic peptide DRG3: FGQKASS (peptide)
peptide: FGQKASS
percent of anti-phage staining blocked [3]: 94% | percent of anti-phage staining blocked [4]: 53%

B2: synthetic peptide DRG1: SPGARAF (peptide)
peptide: SPGARAF
percent of anti-phage staining blocked [5]: 97% | percent of anti-phage staining blocked [6]: 47%

B3: synthetic peptide DRG2: DGPWRKM (peptide)
peptide: DGPWRKM
percent of anti-phage staining blocked [7]: 94% | percent of anti-phage staining blocked [8]: 54%
